According to the nanobody polyreactivity screen of Harvey et al. (2022):

Assay: yeast display, Sf9 membrane polyspecificity reagent, FACS + sequencing; frameworks hold sequencing errors
Outline: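 Nanobodies came from a synthetic yeast display library in Saccharomyces cerevisiae BJ5465, induced with galactose for 36–48 hours and stained for 1 hour at 4 °C with 10% biotinylated, detergent-solubilized Sf9 membrane reagent. Cells were enriched on streptavidin microbeads and then FACS-sorted, with low and high (top ~1%) gates set on anti-HA fluorescence for expression and streptavidin fluorescence for reagent binding. Each polyreactivity label reflects the gate a clone came from. Genes were amplified by colony PCR, sequenced by MiSeq 2 × 250 and filtered by CDR length.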

| Sequence | polyreactivity (PSR sort gate) |
| --- | --- |
| QVQLVESGGGLVQAGGSLRFSCAASGRIFSGNGMGWYRQAPGKEREFVAAIRFSSGSTYYADSVKGRFTISRDNAKNTVYLQMNSLKPEDTAVYYCARPSIPRRYDYWGQGTQVTVSS | high polyreactivity |
| QVQLVESGGGLVQAGGSLRLSCAASGRTFRLYAMGWYRQAPGKERELVAAISRRGGSTYYADSVKGRFTISRDNAKNTVYLQMNSLKPEDTAVYYCAKGLGSGQEIYGYDYWGQGTQVTVSS | high polyreactivity |
| QVQLVDSGGGLVQAGGSLRLSCASSGRIFTKYSMGLYRQAPGKERELVAGISGSGTITYYADSVKGRFTISRDNAKNTVYLQMNSLKPVDSAVYYCNAGRVTNRTPRYDYWGQGTQVSVSS | high polyreactivity |
| QVQLVESGGGLVQAGGSLRLICAASGRIFDPYAMGWYRQAPGKERELVASISWSGGRTYYADSVKGRFTISRDNAKNTVYLQMNSLKPEDTAVYYCAARQWYRYKVRFDYWGQGTQVTVSS | high polyreactivity |
| QVQLVESGGGLVQAGGSLRLSCAASGSTFIVNAMGWYRQAPGKERELVAAISRSGSDTYYADSVKGRFTISRDNAKNTVYLQMNSLKPEDTAVYYCAARWSYRSLARYNYWGQGTQVTVSS | low polyreactivity |
| QVQLVESGGGLVQAGGSLRLSCAASGGTFYRSAMGWYRQAPGKERELVAAISTGSSTYYADSVKGRFTISRDNAKNTVYLQINSQKPEDTAVNYCAARYWERYRSFNYWGQGTQVTVSS | high polyreactivity |
| QVQLVESGGGLVQAGGSLRLSCAASGSILGYYAMGWYRQAPGKERELVAANTASGGSTYYADSVKGRFTISRDNAKNTVYLQMNSLKPEDTAVYYCAAQYYATYGYWGQGTQVTVSS | low polyreactivity |
| QVQLVESGGGLVQAGGSLRLRCAASGYTLGPYAMGWYRQAPGKEREEVAALSWGGGRTYYADSVKGRFTISRDNAKNTVYLQMNSLKPEDTAVYYCGAKWSHVRDGPKYDYWGQGTQVTVSS | low polyreactivity |
| QVQLVESGGGLFQAGGSLRLSCAASGITFAQYAMGWYRQAPGKDRELVAVISSGGSTNYADSVKGRFTISRDNAKNTVYLQMNSMKPEDTAVYYCNADEAAPVYSYYYWGQGTQVTVSS | low polyreactivity |
| QVQLVESGGGLVQAGGSLRLSCAASGSIFLVYAMGWYRQAPGKERELVAAISRSGRTYADSVKGRFTISRDNAKNTVYLQMNSLKPEDTAVYYCAAGTKRRFEGDYWGQGTQVTVSS | high polyreactivity |
| QVQLVESGGGLVQAGGSLRLSCAASGSIFNINAMGWYRQAPGKEREFVAAIDYSDSTYYADSVKGRFTISRDNAKNTVYLQMNSLKPEDTAVYYCAADVWKDGYWGDYWGQGTQVNVSS | high polyreactivity |
| QVQLVESGGGLVQAGGSLRLSCAASGSTFDSYAMGWYRQAPGKERELVASITSNDGSTSYADSVKGRFTISRDNAKNTVYLQMNSLKPEDTAVYYCATTFQYYWFSLYDYWGQGTQVTVSS | low polyreactivity |
| QVQLVESGGGLVQAGGSLRLSCAASGGIFQPNAMGWYRQAPGKERELVASISSDGSTNYADSVKGRFTISRDNAKNTVYLQMTSLKPEDTAVYYCAAAVKRGYAQSFISDGYGYWGQGTQVTVSS | low polyreactivity |
| EVQHVESGGGLVQAGGSLRLSCAASGSTFYENAMGWYRQAPGKERELVAAINWSGGRTYYADSVKGRFTISRDNAKNTVNLQMNCLKQEYTAVYYCATREYRYAHSYYWGQGTQVTVSS | high polyreactivity |
| QVQLVESGGGLVQAGGSLSLSCAAYGSTFLRNAMGWYRQAPGKKGSWVATISYDGDSTYYADSVKGRFTISRDNAKNTVYLQMYSLKPEDTAVYYCAASYSLTFWDKDDYWGQGTQVTVSS | low polyreactivity |
| QVQLVESGGGLVQAGGSLRLSCAASGINFGYNVMGWYRQAPGKERELVAAISGSGSSTYYADSVKGRFTISRDNAKNTVYLQMNSLKPEDTAVYYCARQRYEYRTTYYYWGQGTQVTVSS | high polyreactivity |
| QVQLVESGGGLVQAGGSLRLSCAASGSIFRIYAMGWYRQAPGKERELVAAISFSTGSRTYYADSVKGRFTISRDNAKNTVYLQMNSLKPEDTAVFYCNAESYYDYNYWGQGTQVTVSS | low polyreactivity |
| QVQLVESGGGLVQAGGSLRLSCAASGRTFVHNAMGWYRQAPGKERELVAVITSGARTTYADSVKGRFTISRDNAKNTVYLQMNSLKPEDTAVYYCAAGTFSVIFSYKYRHYYYWGQGTQVTVSS | low polyreactivity |
| QVQLVDSGGGLVQAGGSLLLSCAASGHTLYRNAMGWYRQAPGKERELVAAITSRGGSTFYADSVKGRFTISRDNAKNSVYLQMNCLQPEDTAVYYCNTARGTAPAHDYWGQGTQVTVSS | low polyreactivity |
| QVQLVESGGGLVQAGGSLSLSCAASGRLFARNTMGWYRQAPGKEREFVAAIDRRGGSTYYADSVKGRFTISRDNAKNTVYLQMNSLKPEDTAVYYCNKDTRRSGRMDSWGQGTEVTVSS | low polyreactivity |
| QVQLVESGGGLVQAGRSLRLSCAASGFTFETYAMGWYRQAPGKERELVAAISDGGGDTYYADSVKGRFTISRDNAKNTVYLLMNSLKPEDSAVYYCAAEWDGNWSRGAGGYDYWGQGTQVTVSS | low polyreactivity |
| QDQLVESGGGLVQAGGSLRLSCASSGFTFSKNAMGWYRQAPGKERELVAAISRGGGRTYYADSVKGRFTISRDNAKNTVYLQMNSLKPEDTAVYYCNVEKVGPGYDYWGQGTQVTVSS | high polyreactivity |

| Sequence | polyreactivity (PSR sort gate) |
| --- | --- |
| QVQLVESGGGLVQAGGSLRLSCAASGNTFYVNAMGWYRQAPGKERELVATISKRGSSTYYADSVKGRFTISRDNAKNTVFLQMNSLKPEDTAVYYCNAEGPSYYYIIYDYWGQGTQVTVSS | high polyreactivity |
| QVQLQESGGGLVQAGGSLRLSCAASGSIFVSVTMGWYRQAPGKERELVASIGRGSTTNHADSVKGRFTISRDNATNIFYLLMNSLNPEDTAVYYCAALESYGKYHGYWGQGTQVTVSS | low polyreactivity |
| QVQLVESGGGLVQAGGSLRLSCAASGRTFGWYAMGWYRQAPGKERELVAAINNSGDITYYADSVKGRFTISRDNAKNTVYVQMNSLKPEDTAVYYCAATAGYYGYPSEYDYWGQGTQVTVSS | low polyreactivity |
| QVQRVESGGGLVQAGGSLRLSCAASGIIFRGYAMGWYRQAPGKERELVAAITSSGARTYYADSVKGRFTISRDNAKNTVYLQMNSLKPDDTAVYYCNATSSVRRYDSWGQGTQVTVSS | high polyreactivity |
| QVQLVESGGGLVQAGGSLRLSCAASGRTFYSYSMGWYRQEPGQERELVALITWSGGTYYADSVKGRFTISRDNANNTVYLLMNSLKPEDTAVYYCNKYRPYGRIFHRAYGRDYWGQGTQVTVSS | high polyreactivity |
| QVQLVESGGGLVQAGGSLRLSCAASGSIFSDYAKGWYRQAPVKERELVAVITSGGRTNYADSLKGRFTISRDNAKNTVYLQMNSLKPEDTAVFYWNAYVHSRRVEFNYWGQGTQVTVSS | high polyreactivity |
| QVQLVESGGGLVQAGGSLRLSCAASGLIFDGYAMGWYRQAPGKERELVAAISRSGSRTYYADSVKGRFTISRDNAKNTVYLQMNSLKPEDTAVYYCAADAYNYPELDYWGQGTQVTVSS | high polyreactivity |
| QVQLVESGGRLVQAGGILRLSCPASGSTFKKYAMGWYRQTPGKERELVASINSSAGSTYYADSVKGRFTISRDNAKNTVYLQMNSLKPEDTAVYYCATCQKVYSGRYDYWGQGTQVTVSS | low polyreactivity |
| QVQLVESGGGLVQAGGSLRLSCAASGFTFNRNAMGWYRQAPGKERFVAAITGSGASTYYADSVKGRFTISRDNAKNTVYLQMNSLKPEDTAVYYCNAEYYAGRYRYDYWGQGTQVTVSS | high polyreactivity |
| QVQLVESGGGLVQAGGSLRLSCAASGSTLYYNAMGWYRQAPGKERELVAAISWSGGSTYYADSVKGRFTISRDNAKNTVYLQMNSLKPEDTAVYYCAADVNYYQHRLYYWGQGTQVTVSS | low polyreactivity |
| QVQLVESGGGLVQAGGSLRLSCAASGFIFTGYAMGWYRQAPGTEREFVAAISYSGGSTYADSVKGRFTISRDNAKNTVYLQMNSLKPEDTAVYYCNARQGLWRYTAENDYWGQGTHVTVSS | low polyreactivity |
| QVQLVESGGGLVQAGGSLRLSCAASGSILYPYAMGWYRQAPGKERELVAAISSDGSTYYADSVKGRFTISRDNAKNTVYLQMNSLKPEDTAVYYCNADIGPRYDYWGQGTQVTVSS | high polyreactivity |
| QVQLVESGGGLVQAGGSLRLSCAASGGIFARNAMGWYRQAPGKVRELVAAISWSGGRTYYADSVKGRFTISRDNAKNTDYLQMNSLKPEDTAVYYSAADHDPWWAWEFDYWGQGTQVTVSS | low polyreactivity |
| QVQLVESGVGLVQAGGSLRLSCAASGFIIRTYAMGWYIQAPGKERELVATITGDGSTNYADSVKGRFTISRDNAKNTVYLQMNSLKPEDTAVYYCSRDDRLAVDYWGQGTQVTVSS | low polyreactivity |
| QVQLVESGGGLVQAGGSLRLSCAASGITFYWYAMGWYRQAPGKERELVARISSTGGSTYYADSVKGRFTISRDNAKNTVYLQLNSLKPEDTAVYYCNAVGRLYLYGSWGQGTQVTLSS | high polyreactivity |
| QVQLVESGGGLVQAGGSLRLSCAASGFILFPNAMGWYRQAPGKERELVAAITSGGRTNYADSVKGRFTISRDNAKNTVYLQMTSLKPEDTAVYYCAYVGYWWGYDYWGQGTQVTVSS | low polyreactivity |
| QVQLVESGGGLVQAGGSLRLSCAASGSILTVYAMGWYRQAPGKERELVARIRSGDRTYYADSVKGRFTISRDNAKNTVYLQMNSLKPEDTAVYYCAAGSQRRYYHTNWDSFNYWGQGSQVTVSS | low polyreactivity |
| QVQLVESAGGIVQAGGSLRLSCAASGFTFTGYAMGWYRQAPGKEREMVAAINARGTSTYYADSVKGRFTISRDNAKNTVYLQMNSLKPEDTAVYYCNREGRSVSGYYYYWGQGTQVTVSS | high polyreactivity |
| QVQLVESGGGLVQAGGSLRLSCAASGFTFTDYAMGWYRQAPGKERELVAAITKGGGRTYYADSVKGRFTISRDNAKNTVYLQMNSLKPEDTAVYYCNARYQVPYGYWGQGTQVTVSS | low polyreactivity |
| QVQLVESGGGLVQAGGSLRLRGAASGSTFYRYAMGWSRQAPGKERELVAAISWSAGRTYYADSVKGRFTISRYTAKNTVYLQMNSLKPEDTAVYYCAARGWYKSDYWGQGTQVTVSS | low polyreactivity |
| QVQLVESGGGLVQAGGSLRLSCAASGSIFYRNTMGWYRQAPGKERELVAAITSGGGTNYADSVKGRFTISRDNAKNTVYLQMNSLKPEDTAVYYCAASRQYTVGFYSWGQGTQVTVSS | high polyreactivity |
